The text below walks through data of publication doi:10.1101/2020.06.15.153577.

The target in test [1] is ShakerKD (Drosophila) (UniProt P08510).
Test [2] concerns the target Drosophila Shaker channel (ShakerIR) (Drosophila) (UniProt P08510).

Regarding Conkunitzin-C1 (peptide), the EC50 of block of K+ currents, two-electrode voltage clamp on Xenopus oocytes in test [1] is 108 nM; in test [2], 2200 nM.

As for Conkunitzin-C3 (peptide), the figures for the EC50 of block of K+ currents, two-electrode voltage clamp on Xenopus oocytes in test [1] and in test [2] were 190 nM and 166 nM, respectively.
